How the values were obtained:
GST-Nuf2-Ndc80 complex = GST-Nuf2-Ndc80 complex (UniProt Q9BZD4;O14777); experiment: pull-down
Nuf2-Ndc80 complex = Nuf2-Ndc80 complex (UniProt Q9BZD4;O14777); experiment: SEC
Nuf2-Ndc80 complex, sequence (Q9BZD4 whole entry, chain 1 of 2): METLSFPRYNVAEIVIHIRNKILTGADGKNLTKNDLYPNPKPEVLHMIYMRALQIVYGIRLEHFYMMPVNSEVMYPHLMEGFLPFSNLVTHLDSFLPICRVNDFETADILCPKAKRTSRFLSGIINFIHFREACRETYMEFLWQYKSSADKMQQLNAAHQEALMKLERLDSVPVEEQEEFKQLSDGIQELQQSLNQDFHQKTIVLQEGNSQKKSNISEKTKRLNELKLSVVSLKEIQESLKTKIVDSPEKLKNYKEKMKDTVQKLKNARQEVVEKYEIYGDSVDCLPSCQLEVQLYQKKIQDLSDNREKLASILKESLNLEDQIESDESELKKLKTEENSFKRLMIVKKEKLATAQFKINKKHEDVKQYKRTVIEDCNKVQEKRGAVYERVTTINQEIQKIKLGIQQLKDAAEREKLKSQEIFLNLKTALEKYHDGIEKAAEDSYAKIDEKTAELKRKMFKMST
Nuf2-Ndc80 complex, sequence (O14777 whole entry, chain 2 of 2): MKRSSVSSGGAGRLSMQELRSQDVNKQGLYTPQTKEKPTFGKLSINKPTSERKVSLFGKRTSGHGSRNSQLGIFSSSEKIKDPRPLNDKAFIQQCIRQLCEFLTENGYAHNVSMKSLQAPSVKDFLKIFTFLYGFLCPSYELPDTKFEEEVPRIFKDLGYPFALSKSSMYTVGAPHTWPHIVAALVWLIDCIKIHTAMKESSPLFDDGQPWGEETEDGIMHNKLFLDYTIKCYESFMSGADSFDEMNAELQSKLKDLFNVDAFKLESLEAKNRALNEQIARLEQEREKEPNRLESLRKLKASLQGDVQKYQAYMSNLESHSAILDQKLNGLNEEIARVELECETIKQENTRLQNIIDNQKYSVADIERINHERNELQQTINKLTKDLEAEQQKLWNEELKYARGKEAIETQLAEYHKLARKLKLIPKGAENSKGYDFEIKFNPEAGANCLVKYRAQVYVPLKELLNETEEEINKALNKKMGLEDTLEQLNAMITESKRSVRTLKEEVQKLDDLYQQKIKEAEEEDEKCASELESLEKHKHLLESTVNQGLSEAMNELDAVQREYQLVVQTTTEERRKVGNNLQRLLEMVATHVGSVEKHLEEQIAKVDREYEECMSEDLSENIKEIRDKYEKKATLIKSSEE

GST-Nuf2-Ndc80 complex, sequence (Q9BZD4 whole entry, chain 1 of 2): as the sequence (Q9BZD4 whole entry, chain 1 of 2) above
GST-Nuf2-Ndc80 complex, sequence (O14777 whole entry, chain 2 of 2): as the sequence (O14777 whole entry, chain 2 of 2) above

binding result (GST-Nuf2-Ndc80 complex)	binding result (Nuf2-Ndc80 complex)	Binder
binds		Ska1-Ska2-Ska3 6A complex (complex) chain 1: MASSDLEQLCSHVNEKIGNIKKTLSLRNCGQEPTLKTVLNKIGDEIIVINELLNKLELEIQYQEQTNNSLKELCESLEEDYKDIEHLKENVPSHLPQVTVTQSCVKGSDLDPEEPIKVEEPEPVKKPPKEQRSIKEMPFITCDEFNGVPSYMKSRLTYNQINDVIKEINKAVISKYKILHQPKKSMNSVTRNLYHRFIDEETKDTKGRYFIVEADIKEFTTLKADKKFHVLLNILRHCRRLSEVRGGGLTRYVIT chain 2: MEAEVDKLELMFQKAESDLDYIQYRLEYEIKTNHPDSASEKNPVTLLKELSVIKSRYQTLYARFKPVAVEQKESKSRICATVKKTMNMIQKLQKQTDLELSPLTKEEKTAAEQFKFHMPDL chain 3: MDPIRSFCGKLRSLASTLDCETARLQRALDGEESDFEDYPMRILYDLHSEVQTLKDDVNILLDKARLENQEGIDFIKATKVLMEKNSMDIMKIREYFQKYGYSPRVKKNSVHEQEAINSDPELSNCENFQKTDVKDDLSDPPVASSCISEKSPRSPQLSDFGLERYIVSQVLPNPPQAVNNYKEEPVIVTPPTKQSLVKVLKAPKCALKMDDFECVAPKLEHFGISEYTMCLNEDYTMGLKNARNNKSEEAIDTESRLNDNVFATPSPIIQQLEKSDAEYTNAPLVPTFCAPGLKIPSTKNSIALVSTNYPLSKTNSSSNDLEVEDRTSLVLNSDTCFENLTDPSSPTISSYENLLRAPAPPEVTKIPEDILQLLSKYNSNLATPIAIKAVPPSKRFLKHGQNIRDVSNKEN
binds		Ska1-Ska2-Ska3 6A complex treated with Cdk1/Cyclin B1 (complex, treated with Cdk1/Cyclin B1 plus ATP; phosphorylated residues not stated) chain 1: MASSDLEQLCSHVNEKIGNIKKTLSLRNCGQEPTLKTVLNKIGDEIIVINELLNKLELEIQYQEQTNNSLKELCESLEEDYKDIEHLKENVPSHLPQVTVTQSCVKGSDLDPEEPIKVEEPEPVKKPPKEQRSIKEMPFITCDEFNGVPSYMKSRLTYNQINDVIKEINKAVISKYKILHQPKKSMNSVTRNLYHRFIDEETKDTKGRYFIVEADIKEFTTLKADKKFHVLLNILRHCRRLSEVRGGGLTRYVIT chain 2: MEAEVDKLELMFQKAESDLDYIQYRLEYEIKTNHPDSASEKNPVTLLKELSVIKSRYQTLYARFKPVAVEQKESKSRICATVKKTMNMIQKLQKQTDLELSPLTKEEKTAAEQFKFHMPDL chain 3: MDPIRSFCGKLRSLASTLDCETARLQRALDGEESDFEDYPMRILYDLHSEVQTLKDDVNILLDKARLENQEGIDFIKATKVLMEKNSMDIMKIREYFQKYGYSPRVKKNSVHEQEAINSDPELSNCENFQKTDVKDDLSDPPVASSCISEKSPRSPQLSDFGLERYIVSQVLPNPPQAVNNYKEEPVIVTPPTKQSLVKVLKAPKCALKMDDFECVAPKLEHFGISEYTMCLNEDYTMGLKNARNNKSEEAIDTESRLNDNVFATPSPIIQQLEKSDAEYTNAPLVPTFCAPGLKIPSTKNSIALVSTNYPLSKTNSSSNDLEVEDRTSLVLNSDTCFENLTDPSSPTISSYENLLRAPAPPEVTKIPEDILQLLSKYNSNLATPIAIKAVPPSKRFLKHGQNIRDVSNKEN
binds	binds	Ska1-Ska2-Ska3 6D complex (complex) chain 1: MASSDLEQLCSHVNEKIGNIKKTLSLRNCGQEPTLKTVLNKIGDEIIVINELLNKLELEIQYQEQTNNSLKELCESLEEDYKDIEHLKENVPSHLPQVTVTQSCVKGSDLDPEEPIKVEEPEPVKKPPKEQRSIKEMPFITCDEFNGVPSYMKSRLTYNQINDVIKEINKAVISKYKILHQPKKSMNSVTRNLYHRFIDEETKDTKGRYFIVEADIKEFTTLKADKKFHVLLNILRHCRRLSEVRGGGLTRYVIT chain 2: MEAEVDKLELMFQKAESDLDYIQYRLEYEIKTNHPDSASEKNPVTLLKELSVIKSRYQTLYARFKPVAVEQKESKSRICATVKKTMNMIQKLQKQTDLELSPLTKEEKTAAEQFKFHMPDL chain 3: MDPIRSFCGKLRSLASTLDCETARLQRALDGEESDFEDYPMRILYDLHSEVQTLKDDVNILLDKARLENQEGIDFIKATKVLMEKNSMDIMKIREYFQKYGYSPRVKKNSVHEQEAINSDPELSNCENFQKTDVKDDLSDPPVASSCISEKSPRSPQLSDFGLERYIVSQVLPNPPQAVNNYKEEPVIVTPPTKQSLVKVLKDPKCALKMDDFECVDPKLEHFGISEYTMCLNEDYTMGLKNARNNKSEEAIDTESRLNDNVFATPSPIIQQLEKSDAEYTNDPLVPTFCDPGLKIPSTKNSIALVSTNYPLSKTNSSSNDLEVEDRTSLVLNSDTCFENLTDPSSPTISSYENLLRDPDPPEVTKIPEDILQLLSKYNSNLATPIAIKAVPPSKRFLKHGQNIRDVSNKEN
